Article PMC9352680, “A comprehensive thermodynamic model for RNA binding by the Saccharomyces cerevisiae Pumilio protein PUF4”
Changes are numbered by the printed parent chain. Numbers in names are those of the source.

T1: PUF4 RNA-binding domain (Saccharomyces cerevisiae, UniProt P25339 537-888)
T1 sequence: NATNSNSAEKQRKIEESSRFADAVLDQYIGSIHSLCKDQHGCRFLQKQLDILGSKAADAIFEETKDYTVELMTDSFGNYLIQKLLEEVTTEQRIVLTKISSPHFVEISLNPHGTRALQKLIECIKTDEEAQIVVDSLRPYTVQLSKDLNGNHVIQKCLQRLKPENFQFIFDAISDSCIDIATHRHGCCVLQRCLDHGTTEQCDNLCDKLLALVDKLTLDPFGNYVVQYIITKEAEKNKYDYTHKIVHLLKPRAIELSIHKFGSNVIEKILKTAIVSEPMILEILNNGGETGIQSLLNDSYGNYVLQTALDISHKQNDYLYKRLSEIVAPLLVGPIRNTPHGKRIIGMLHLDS

B1: Ic_S2_P3E.1_K3.1_C3.1_H3.1_A3.1_[T5C]_F3.1_[T7G]_[A8T]_T3.1 (ssRNA)
RNA: UUUGAUUAAUAUGAUAUCGUUCUUUCUUGUACAGUUUCUUUCUCGAUAUCAUAUUAAUCUUU
B2: Ic_S2_P3E.1_K3.1_C3.1_H3.1_A3.1_[A6C]_F3.1_[T7A]_[A8T]_T3.1 (ssRNA)
RNA: B1 RNA with C32U, A33C, G34A
B3: Ic_S2_P3E.1_K3.1_C3.1_H3.1_A3.1_[T5A]_[A6C]_F3.1_[T7C]_[A8T]_T3.1 (ssRNA)
RNA: B1 RNA with C32A, A33C, G34C
B4: Ic_S2_P3E.1_K3.1_C3.1_H3.1_A3.1_[T5A]_F3.1_[T7C]_[A8T]_T3.1 (ssRNA)
RNA: B1 RNA with C32A, G34C
B5: Ic_S2_P3E.1_K3.1_C3.1_H3.1_A3.1_[A6G]_F3.1_[T7G]_[A8C]_T3.1 (ssRNA)
RNA: B1 RNA with C32U, A33G, U35C
B6: Ic_S2_P3E.1_K3.1_C3.1_H3.1_A3.1_[A6T]_F3.1_[T7C]_[A8G]_T3.1 (ssRNA)
RNA: B1 RNA with C32U, A33U, G34C, U35G
B7: Ic_S2_P3E.1_K3.1_C3.1_H3.1_A3.1_[T5A]_[A6T]_F3.1_[T7G]_[A8T]_T3.1 (ssRNA)
RNA: B1 RNA with C32A, A33U
B8: Ic_S2_P3E.1_K3.1_C3.1_H3.1_A3.1_[T5A]_[A6C]_F3.1_[T7G]_[A8G]_T3.1 (ssRNA)
RNA: B1 RNA with C32A, A33C, U35G
B9: Ic_S2_P3E.1_K3.1_C3.1_H3.1_A3.1_[T5A]_[A6T]_F3.1_[A8T]_T3.1 (ssRNA)
RNA: B1 RNA with C32A, A33U, G34U
B10: Ic_S2_P3E.1_K3.1_C3.1_H3.1_A3.1_[T5A]_[A6T]_F3.1_[T7A]_[A8C]_T3.1 (ssRNA)
RNA: B1 RNA with C32A, A33U, G34A, U35C
B11: Ic_S2_P3E.1_K3.1_C3.1_H3.1_A3.1_[T5C]_F3.1_[T7A]_[A8C]_T3.1 (ssRNA)
RNA: B1 RNA with G34A, U35C
B12: Ic_S2_P3E.1_K3.1_C3.1_H3.1_A3.1_[T5C]_F3.1_[T7C]_[A8C]_T3.1 (ssRNA)
RNA: B1 RNA with G34C, U35C
B13: Ic_S2_P3E.1_K3.1_C3.1_H3.1_A3.1_[T5C]_F3.1_[T7C]_[A8G]_T3.1 (ssRNA)
RNA: B1 RNA with G34C, U35G
B14: Ic_S2_P3E.1_K3.1_C3.1_H3.1_A3.1_[T5A]_[A6T]_F3.1_[A8C]_T3.1 (ssRNA)
RNA: B1 RNA with C32A, A33U, G34U, U35C
B15: Ic_S2_P3E.1_K3.1_C3.1_H3.1_A3.1_[T5C]_F3.1_[T7A]_[A8G]_T3.1 (ssRNA)
RNA: B1 RNA with G34A, U35G
B16: Ic_S2_P3E.1_K3.1_C3.1_H3.1_A3.1_[T5A]_F3.1_[T7A]_[A8C]_T3.1 (ssRNA)
RNA: B1 RNA with C32A, G34A, U35C
B17: Ic_S2_P3E.1_K3.1_C3.1_H3.1_A3.1_F3.1_T3.1 (ssRNA)
RNA: B1 RNA with C32U, G34U, U35A
B18: Ic_S2_P3E.1_K3.1_C3.1_H3.1_A3.1_[A6C]_F3.1_[T7G]_[A8T]_T3.1 (ssRNA)
RNA: B1 RNA with C32U, A33C
B19: Ic_S2_P3E.1_K3.1_C3.1_H3.1_A3.1_[A6C]_F3.1_[T7C]_[A8T]_T3.1 (ssRNA)
RNA: B1 RNA with C32U, A33C, G34C
B20: Ic_S2_P3E.1_K3.1_C3.1_H3.1_A3.1_[T5A]_[A6T]_F3.1_[T7A]_[A8T]_T3.1 (ssRNA)
RNA: B1 RNA with C32A, A33U, G34A
B21: Ic_S2_P3E.1_K3.1_C3.1_H3.1_A3.1_[A6T]_F3.1_[T7C]_[A8T]_T3.1 (ssRNA)
RNA: B1 RNA with C32U, A33U, G34C
B22: Ic_S2_P3E.1_K3.1_C3.1_H3.1_A3.1_[A6T]_F3.1_[T7G]_[A8C]_T3.1 (ssRNA)
RNA: B1 RNA with C32U, A33U, U35C
B23: Ic_S2_P3E.1_K3.1_C3.1_H3.1_A3.1_[A6G]_F3.1_[T7C]_[A8C]_T3.1 (ssRNA)
RNA: B1 RNA with C32U, A33G, G34C, U35C
B24: Ic_S2_P3E.1_K3.1_C3.1_H3.1_A3.1_[T5A]_[A6T]_F3.1_[T7A]_[A8G]_T3.1 (ssRNA)
RNA: B1 RNA with C32A, A33U, G34A, U35G
B25: Ic_S2_P3E.1_K3.1_C3.1_H3.1_A3.1_[T5A]_[A6C]_F3.1_[T7C]_[A8G]_T3.1 (ssRNA)
RNA: B1 RNA with C32A, A33C, G34C, U35G
B26: Ic_S2_P3E.1_K3.1_C3.1_H3.1_A3.1_[T5A]_[A6C]_F3.1_[T7A]_[A8T]_T3.1 (ssRNA)
RNA: B1 RNA with C32A, A33C, G34A
B27: Ic_S2_P3E.1_K3.1_C3.1_H3.1_A3.1_[A6C]_F3.1_[T7A]_[A8G]_T3.1 (ssRNA)
RNA: B1 RNA with C32U, A33C, G34A, U35G
B28: Ic_S2_P3E.1_K3.1_C3.1_H3.1_A3.1_[T5C]_F3.1_[T7C]_[A8T]_T3.1 (ssRNA)
RNA: B1 RNA with G34C
B29: Ic_S2_P3E.1_K3.1_C3.1_H3.1_A3.1_[T5A]_[A6T]_F3.1_[T7C]_[A8T]_T3.1 (ssRNA)
RNA: B1 RNA with C32A, A33U, G34C
B30: Ic_S2_P3E.1_K3.1_C3.1_H3.1_A3.1_[A6C]_F3.1_[T7C]_[A8C]_T3.1 (ssRNA)
RNA: B1 RNA with C32U, A33C, G34C, U35C
B31: Ic_S2_P3E.1_K3.1_C3.1_H3.1_A3.1_[T5A]_[A6C]_F3.1_[A8G]_T3.1 (ssRNA)
RNA: B1 RNA with C32A, A33C, G34U, U35G
B32: Ic_S2_P3E.1_K3.1_C3.1_H3.1_A3.1_[T5A]_[A6C]_F3.1_[T7A]_[A8G]_T3.1 (ssRNA)
RNA: B1 RNA with C32A, A33C, G34A, U35G
B33: Ic_S2_P3E.1_K3.1_C3.1_H3.1_A3.1_[A6T]_F3.1_[T7C]_[A8C]_T3.1 (ssRNA)
RNA: B1 RNA with C32U, A33U, G34C, U35C
B34: Ic_S2_P4E.1_K4.1_C4.1_H4.1_A4.1_[T5G]_[A6C]_[T7G]_F4.1_[T8G]_[A9T]_T4.1 (ssRNA)
RNA: UUUGAUUAAUAUGAUAUCGUUCUUUCUUGUAGCGGUUUCUUUCUCGAUAUCAUAUUAAUCUUU
B35: Ic_S2_P4E.1_K4.1_C4.1_H4.1_A4.1_[T5G]_[A6C]_[T7C]_F4.1_[T8C]_[A9T]_T4.1 (ssRNA)
RNA: B34 RNA with G34C, G35C
B36: Ic_S2_P4E.1_K4.1_C4.1_H4.1_A4.1_[T5G]_[A6C]_[T7C]_F4.1_[A9T]_T4.1 (ssRNA)
RNA: B34 RNA with G34C, G35U
B37: Ic_S2_P4E.1_K4.1_C4.1_H4.1_A4.1_[T5G]_[A6C]_[T7G]_F4.1_[T8C]_[A9C]_T4.1 (ssRNA)
RNA: B34 RNA with G35C, U36C
B38: Ic_S2_P4E.1_K4.1_C4.1_H4.1_A4.1_[T5G]_[A6C]_[T7G]_F4.1_[A9C]_T4.1 (ssRNA)
RNA: B34 RNA with G35U, U36C
B39: Ic_S2_P4E.1_K4.1_C4.1_H4.1_A4.1_[T5G]_[A6C]_[T7C]_F4.1_[T8G]_[A9C]_T4.1 (ssRNA)
RNA: B34 RNA with G34C, U36C
B40: Ic_S2_P4E.1_K4.1_C4.1_H4.1_A4.1_[T5G]_[A6C]_[T7C]_F4.1_[A9G]_T4.1 (ssRNA)
RNA: B34 RNA with G34C, G35U, U36G
B41: Ic_S2_P4E.1_K4.1_C4.1_H4.1_A4.1_[T5G]_[A6C]_[T7C]_F4.1_[T8C]_T4.1 (ssRNA)
RNA: B34 RNA with G34C, G35C, U36A
B42: Ic_S2_P4E.1_K4.1_C4.1_H4.1_A4.1_[T5G]_[A6C]_[T7C]_F4.1_[T8A]_[A9G]_T4.1 (ssRNA)
RNA: B34 RNA with G34C, G35A, U36G
B43: Ic_S2_P4E.1_K4.1_C4.1_H4.1_A4.1_[T5G]_[A6C]_[T7C]_F4.1_[T8C]_[A9C]_T4.1 (ssRNA)
RNA: B34 RNA with G34C, G35C, U36C
B44: Ic_S2_P4E.1_K4.1_C4.1_H4.1_A4.1_[T5G]_[A6C]_[T7G]_F4.1_T4.1 (ssRNA)
RNA: B34 RNA with G35U, U36A
B45: Ic_S2_P4E.1_K4.1_C4.1_H4.1_A4.1_[T5G]_[A6C]_[T7A]_F4.1_[A9G]_T4.1 (ssRNA)
RNA: B34 RNA with G34A, G35U, U36G
B46: Ic_S2_P4E.1_K4.1_C4.1_H4.1_A4.1_[T5G]_[A6C]_[T7C]_F4.1_[T8A]_[A9C]_T4.1 (ssRNA)
RNA: B34 RNA with G34C, G35A, U36C
B47: Ic_S2_P4E.1_K4.1_C4.1_H4.1_A4.1_[T5G]_[A6C]_[T7A]_F4.1_[T8A]_T4.1 (ssRNA)
RNA: B34 RNA with G34A, G35A, U36A
B48: Ic_S2_P4E.1_K4.1_C4.1_H4.1_A4.1_[T5G]_[A6C]_[T7C]_F4.1_[T8C]_[A9G]_T4.1 (ssRNA)
RNA: B34 RNA with G34C, G35C, U36G
B49: Ic_S2_P4E.1_K4.1_C4.1_H4.1_A4.1_[T5G]_[A6C]_[T7C]_F4.1_T4.1 (ssRNA)
RNA: B34 RNA with G34C, G35U, U36A
B50: Ic_S2_P4E.1_K4.1_C4.1_H4.1_A4.1_[T5G]_[A6C]_[T7A]_F4.1_[T8C]_T4.1 (ssRNA)
RNA: B34 RNA with G34A, G35C, U36A
B51: Ic_S2_P4E.1_K4.1_C4.1_H4.1_A4.1_[T5G]_[A6C]_[T7C]_F4.1_[T8A]_[A9T]_T4.1 (ssRNA)
RNA: B34 RNA with G34C, G35A
B52: Ic_S2_P4E.1_K4.1_C4.1_H4.1_A4.1_[T5G]_[A6C]_[T7G]_F4.1_[T8C]_[A9G]_T4.1 (ssRNA)
RNA: B34 RNA with G35C, U36G

Each binder was assayed against T1, PUF4 RNA-binding domain (assay: Mg; RNA-MaP; 20 mM Na-HEPES pH 7.4, 30 mM KOAc, 0.75 mM MgCl2, 0.1% Tween-20, 5% glycerol, 0.1 mg/mL BSA, 2 mM DTT; 25 C; 0.0125-409.6 nM protein). Conditions: tags: N-His6-TEV cleaved; C-SNAP kept, Cy3B-labelled; label: tethered on chip by stalled RNA polymerase.

Binder | Kd [nM]
UCUCUUUAUAUUUAUCUCUU (ssRNA) [Ib_S1_P3E.1_K3.1_C3.1_H3.1_[G2A]_A3.1_[A6T]_F3.1_T3.1] | > 2300
B1 | 13.1
B2 | 4.83
B3 | 23.5
B4 | 19.9
B5 | 950
B6 | 234
B7 | 174
B8 | 984
B9 | 19.2
B10 | 158
B11 | 23.8
B12 | 17.3
B13 | 31.5
B14 | 120
B15 | 1630
B16 | 621
B17 | 1.38
B18 | 114
B19 | 13.7

Binder | Kd [nM]
B20 | 11.6
B21 | 11.9
B22 | 442
B23 | 585
B24 | 1530
B25 | 626
B26 | 8.69
B27 | 208
B28 | 2.64
B29 | 22.5
B30 | 132
B31 | 101
B32 | 947
B33 | 76
UCUCUUUGCAAAUAUCUCUU (ssRNA) [Ib_S1_P3E.1_K3.1_C3.1_H3.1_[T3C]_A3.1_[T5A]_F3.1_T3.1] | > 2300
UCUCUUUUUAUUUAUCUCUU (ssRNA) [Ib_S1_P3E.1_K3.1_C3.1_H3.1_[G2T]_A3.1_[A6T]_F3.1_T3.1] | > 2300
UCUCUUUUUAUCUAUCUCUU (ssRNA) [Ib_S1_P3E.1_K3.1_C3.1_H3.1_[G2T]_A3.1_[A6C]_F3.1_T3.1] | > 2300
UCUCUUUGUAUAUUCUCUCUU (ssRNA) [Ic_S1_P4E.1_K4.1_C4.1_H4.1_A4.1_F4.1_[A9C]_T4.1] | 6.17
B34 | 808
B35 | 614

Binder | Kd [nM]
B36 | 48
B37 | 750
B38 | 782
B39 | > 2300
B40 | 300
B41 | 1090
B42 | > 2300
B43 | 685
B44 | 9.8
B45 | 27.6
B46 | 1280
B47 | 360
B48 | 1680
B49 | 5.95
B50 | 828
B51 | 402
B52 | > 2300
UCUCUUUAUAUGUAUCUCUU (ssRNA) [Ib_S1_P3E.1_K3.1_C3.1_H3.1_[G2A]_A3.1_[A6G]_F3.1_T3.1] | 384
